These results are taken from publication PMC2701634.

Several values for one entry are separate records, joined by “and”; a condition that tells them apart may be missing. Identical values can stand only once.

What all share (test): native gel or EMSA; purified p66 on NativePage Novex Bis-Tris gel, then Western blotting with mouse monoclonal anti-RT antibody; in the presence or absence of β-mercaptoethanol
(In general: In EMSA bound probe runs differently from free probe, usually more slowly.)

Assay [1] has as its target HIV-1 reverse transcriptase p66 subunit, mutant I274A (HIV-1 (pNL4-3-ΔE-EGFP)).
The target in assay [2] is HIV-1 reverse transcriptase p66 subunit, mutant Y271A (HIV-1 (pNL4-3-ΔE-EGFP)).
Assay [3] addresses HIV-1 reverse transcriptase p66 subunit, wild type (HIV-1 (pNL4-3-ΔE-EGFP)).

Regarding “HIV-1 reverse transcriptase p66 subunit, mutant I274A (enzyme)”, the stoichiometry N in assay [1] is 4 and 8.

Regarding “HIV-1 reverse transcriptase p66 subunit, mutant Y271A (enzyme)”, the stoichiometry N in assay [2] is 2 and 4.

“HIV-1 reverse transcriptase p66 subunit, wild type (enzyme)” returned a stoichiometry N in assay [3] of 2.

The stoichiometry N is the number of molecules, sites or subunits per partner or assembly.
